Key:
[1] = target: glial cell line derived neurotrophic factor (GDNF), R&D Systems 212-GD-010 (UniProt P39905); assay: c-PLA, buffer; GDNF 1.00E-08 M
[2] = target: glial cell line derived neurotrophic factor (GDNF), R&D Systems 212-GD-010 (UniProt P39905); assay: BLI (Octet RED), antibody on protein G sensors, 1:1 global fit
[3] = target: glial cell line derived neurotrophic factor (GDNF), R&D Systems 212-GD-010 (UniProt P39905); assay: SPR (Biacore T200), biotinylated antibody on CAP chip, 1:1 fit
[4] = target: glial cell line derived neurotrophic factor (GDNF), R&D Systems 212-GD-010 (UniProt P39905); assay: c-PLA, buffer; GDNF 1.00E-09 M
[5] = target: glial cell line derived neurotrophic factor (GDNF), R&D Systems 212-GD-010 (UniProt P39905); assay: SPR, isoaffinity graph
[6] = target: glial cell line derived neurotrophic factor (GDNF), R&D Systems 212-GD-010 (UniProt P39905); assay: SPR (Biacore T200), 1:1 global fit
[7] = target: glial cell line derived neurotrophic factor (GDNF), R&D Systems 212-GD-010 (UniProt P39905); assay: c-PLA, buffer; GDNF 1.00E-11 M
[8] = target: glial cell line derived neurotrophic factor (GDNF), R&D Systems 212-GD-010 (UniProt P39905); assay: t-PLA, buffer; GDNF 1.00E-11 M
[9] = target: glial cell line derived neurotrophic factor (GDNF), R&D Systems 212-GD-010 (UniProt P39905); assay: t-PLA, buffer; GDNF 1.00E-12 M
[10] = target: glial cell line derived neurotrophic factor (GDNF), R&D Systems 212-GD-010 (UniProt P39905); assay: SPR, value from the software's off-rate, beyond the sensitivity range of the instrument
[11] = target: glial cell line derived neurotrophic factor (GDNF), R&D Systems 212-GD-010 (UniProt P39905); assay: c-PLA, buffer; GDNF 1.00E-13 M
[12] = target: glial cell line derived neurotrophic factor (GDNF), R&D Systems 212-GD-010 (UniProt P39905); assay: c-PLA, buffer; GDNF 1.00E-12 M
[13] = target: glial cell line derived neurotrophic factor (GDNF), R&D Systems 212-GD-010 (UniProt P39905); assay: t-PLA, buffer; GDNF 1.00E-08 M
[14] = target: glial cell line derived neurotrophic factor (GDNF), R&D Systems 212-GD-010 (UniProt P39905); assay: SPR, off-rate given by the software, beyond the sensitivity range of the instrument
[15] = target: glial cell line derived neurotrophic factor (GDNF), R&D Systems 212-GD-010 (UniProt P39905); assay: t-PLA, buffer; GDNF 1.00E-13 M
[16] = target: glial cell line derived neurotrophic factor (GDNF), R&D Systems 212-GD-010 (UniProt P39905); assay: t-PLA, buffer; GDNF 1.00E-09 M
[17] = target: glial cell line derived neurotrophic factor (GDNF), R&D Systems 212-GD-010 (UniProt P39905); assay: t-PLA, buffer; GDNF 1.00E-14 M
[18] = target: glial cell line derived neurotrophic factor (GDNF), R&D Systems 212-GD-010 (UniProt P39905); assay: t-PLA, buffer; GDNF 1.00E-10 M
[19] = target: glial cell line derived neurotrophic factor (GDNF), R&D Systems 212-GD-010 (UniProt P39905); assay: c-PLA, buffer; GDNF 1.00E-10 M
[20] = target: glial cell line derived neurotrophic factor (GDNF), R&D Systems 212-GD-010 (UniProt P39905); assay: c-PLA, buffer; GDNF 1.00E-14 M
[21] = target: insulin-like growth factor II (IGF-II), R&D Systems 292-G2-050 (UniProt P01344); assay: BLI (Octet RED), antibody on protein G sensors, 1:1 global fit
[22] = target: insulin-like growth factor II (IGF-II), R&D Systems 292-G2-050 (UniProt P01344); assay: t-PLA, buffer; IGF-II 1.00E-07 M
[23] = target: insulin-like growth factor II (IGF-II), R&D Systems 292-G2-050 (UniProt P01344); assay: SPR (Biacore T200), biotinylated antibody on CAP chip, 1:1 fit
[24] = target: insulin-like growth factor II (IGF-II), R&D Systems 292-G2-050 (UniProt P01344); assay: c-PLA, buffer; IGF-II 1.00E-09 M
[25] = target: insulin-like growth factor II (IGF-II), R&D Systems 292-G2-050 (UniProt P01344); assay: c-PLA, buffer; IGF-II 1.00E-06 M
[26] = target: insulin-like growth factor II (IGF-II), R&D Systems 292-G2-050 (UniProt P01344); assay: t-PLA, buffer; IGF-II 1.00E-11 M
[27] = target: insulin-like growth factor II (IGF-II), R&D Systems 292-G2-050 (UniProt P01344); assay: t-PLA, buffer; IGF-II 1.00E-08 M
[28] = target: insulin-like growth factor II (IGF-II), R&D Systems 292-G2-050 (UniProt P01344); assay: c-PLA, buffer; IGF-II 1.00E-08 M
[29] = target: insulin-like growth factor II (IGF-II), R&D Systems 292-G2-050 (UniProt P01344); assay: SPR, isoaffinity graph
[30] = target: insulin-like growth factor II (IGF-II), R&D Systems 292-G2-050 (UniProt P01344); assay: SPR (Biacore T200), 1:1 global fit
[31] = target: insulin-like growth factor II (IGF-II), R&D Systems 292-G2-050 (UniProt P01344); assay: c-PLA, buffer; IGF-II 1.00E-10 M
[32] = target: insulin-like growth factor II (IGF-II), R&D Systems 292-G2-050 (UniProt P01344); assay: t-PLA, buffer; IGF-II 1.00E-10 M
[33] = target: insulin-like growth factor II (IGF-II), R&D Systems 292-G2-050 (UniProt P01344); assay: c-PLA, buffer; IGF-II 1.00E-11 M
[34] = target: insulin-like growth factor II (IGF-II), R&D Systems 292-G2-050 (UniProt P01344); assay: c-PLA, buffer; IGF-II 1.00E-07 M
[35] = target: insulin-like growth factor II (IGF-II), R&D Systems 292-G2-050 (UniProt P01344); assay: t-PLA, buffer; IGF-II 1.00E-09 M
[36] = target: insulin-like growth factor II (IGF-II), R&D Systems 292-G2-050 (UniProt P01344); assay: t-PLA, buffer; IGF-II 1.00E-06 M
[37] = target: macrophage migration inhibitory factor (MIF), R&D Systems 289-MF-002 (UniProt P14174); assay: t-PLA, buffer; MIF 1.00E-08 M
[38] = target: macrophage migration inhibitory factor (MIF), R&D Systems 289-MF-002 (UniProt P14174); assay: t-PLA, buffer; MIF 1.00E-09 M
[39] = target: macrophage migration inhibitory factor (MIF), R&D Systems 289-MF-002 (UniProt P14174); assay: BLI (Octet RED), antibody on protein G sensors, 1:1 global fit
[40] = target: macrophage migration inhibitory factor (MIF), R&D Systems 289-MF-002 (UniProt P14174); assay: c-PLA, buffer; MIF 1.00E-10 M
[41] = target: macrophage migration inhibitory factor (MIF), R&D Systems 289-MF-002 (UniProt P14174); assay: SPR (Biacore T200), biotinylated antibody on CAP chip, 1:1 fit
[42] = target: macrophage migration inhibitory factor (MIF), R&D Systems 289-MF-002 (UniProt P14174); assay: t-PLA, buffer; MIF 3.00E-07 M
[43] = target: macrophage migration inhibitory factor (MIF), R&D Systems 289-MF-002 (UniProt P14174); assay: t-PLA, buffer; MIF 1.00E-11 M
[44] = target: macrophage migration inhibitory factor (MIF), R&D Systems 289-MF-002 (UniProt P14174); assay: c-PLA, buffer; MIF 1.00E-08 M
[45] = target: macrophage migration inhibitory factor (MIF), R&D Systems 289-MF-002 (UniProt P14174); assay: SPR, isoaffinity graph
[46] = target: macrophage migration inhibitory factor (MIF), R&D Systems 289-MF-002 (UniProt P14174); assay: SPR (Biacore T200), 1:1 global fit
[47] = target: macrophage migration inhibitory factor (MIF), R&D Systems 289-MF-002 (UniProt P14174); assay: c-PLA, buffer; MIF 1.00E-09 M
[48] = target: macrophage migration inhibitory factor (MIF), R&D Systems 289-MF-002 (UniProt P14174); assay: c-PLA, buffer; MIF 1.00E-07 M
[49] = target: macrophage migration inhibitory factor (MIF), R&D Systems 289-MF-002 (UniProt P14174); assay: t-PLA, buffer; MIF 1.00E-07 M
[50] = target: macrophage migration inhibitory factor (MIF), R&D Systems 289-MF-002 (UniProt P14174); assay: c-PLA, buffer; MIF 3.00E-07 M
[51] = target: macrophage migration inhibitory factor (MIF), R&D Systems 289-MF-002 (UniProt P14174); assay: c-PLA, buffer; MIF 1.00E-11 M
[52] = target: macrophage migration inhibitory factor (MIF), R&D Systems 289-MF-002 (UniProt P14174); assay: t-PLA, buffer; MIF 1.00E-10 M

UniProt P01344, sequence (P01344 25-91 limits assumed): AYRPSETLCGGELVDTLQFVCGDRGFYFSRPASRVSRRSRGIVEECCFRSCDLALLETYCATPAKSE
UniProt P39905, sequence (P39905 78-211 limits assumed): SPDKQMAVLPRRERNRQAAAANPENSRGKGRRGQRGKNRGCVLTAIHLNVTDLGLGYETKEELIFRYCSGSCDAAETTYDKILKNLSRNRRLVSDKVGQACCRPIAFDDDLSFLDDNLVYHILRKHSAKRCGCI
UniProt P14174, sequence (P14174 whole entry): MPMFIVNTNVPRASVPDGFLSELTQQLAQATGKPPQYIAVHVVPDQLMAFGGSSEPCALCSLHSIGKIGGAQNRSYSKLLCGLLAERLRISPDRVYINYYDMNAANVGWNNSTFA

affinity-purified polyclonal anti-GDNF antibody (R&D Systems AF-212-NA)
Counts [1]: 214000
SBR [1]: 14200
Kd [2]: < 0.00254 nM
koff [2]: < 1e-06 s⁻¹
kon [2]: 393000 M⁻¹ s⁻¹
Kd [3]: < 0.00071 nM
koff [3]: < 1e-05 s⁻¹
kon [3]: 1.4e+07 M⁻¹ s⁻¹
Counts [4]: 427000
SBR [4]: 28300
Kd [5]: < 0.005 nM
Kd [6]: < 0.00071 nM
koff [6]: < 1e-05 s⁻¹
kon [6]: 1.35e+07 M⁻¹ s⁻¹
Counts [7]: 3340
SBR [7]: 221
Counts [8]: 6.06e+07
SBR [8]: 90
Counts [9]: 6.17e+06
SBR [9]: 9.1
Kd [10]: 0.000173 nM
Counts [11]: 172
SBR [11]: 11
Counts [12]: 283
SBR [12]: 19
Counts [13]: 1.02e+09
SBR [13]: 1520
koff [14]: 2.34e-06 s⁻¹
Counts [15]: 7.19e+06
SBR [15]: 11
Counts [16]: 2.24e+09
SBR [16]: 3320
Counts [17]: 1.92e+06
SBR [17]: 2.8
Counts [18]: 6.04e+08
SBR [18]: 896
Counts [19]: 59400
SBR [19]: 3930
Counts [20]: 17
SBR [20]: 1.1

affinity-purified polyclonal anti-IGF-II antibody (R&D Systems AF-292-NA)
Kd [21]: 1.17 nM
koff [21]: 0.000321 s⁻¹
kon [21]: 274000 M⁻¹ s⁻¹
Counts [22]: 5.89e+07
SBR [22]: 81
Kd [23]: 0.051 nM
koff [23]: 2.5e-05 s⁻¹
kon [23]: 490000 M⁻¹ s⁻¹
Counts [24]: 527
SBR [24]: 2.4
Counts [25]: 49700
SBR [25]: 227
Counts [26]: 400000
SBR [26]: 0.5
Counts [27]: 1.75e+07
SBR [27]: 24
Counts [28]: 12200
SBR [28]: 56
Kd [29]: > 0.05 nM
Kd [30]: 0.0511 nM
koff [30]: 2.49e-05 s⁻¹
kon [30]: 486000 M⁻¹ s⁻¹
Counts [31]: 215
SBR [31]: 1
Counts [32]: 145000
SBR [32]: 0.2
Counts [33]: 171
SBR [33]: 0.8
Counts [34]: 50300
SBR [34]: 230
Counts [35]: 641000
SBR [35]: 0.9
Counts [36]: 4.77e+07
SBR [36]: 65

affinity-purified polyclonal anti-MIF antibody (R&D Systems AF-289-PB)
Counts [37]: 3.97e+07
SBR [37]: 21
Counts [38]: 1.43e+07
SBR [38]: 7
Kd [39]: 1.75 nM
koff [39]: 0.000532 s⁻¹
kon [39]: 304000 M⁻¹ s⁻¹
Counts [40]: 1020
SBR [40]: 60
Kd [41]: 0.083 nM
koff [41]: 9.4e-05 s⁻¹
kon [41]: 1.1e+06 M⁻¹ s⁻¹
Counts [42]: 4.66e+07
SBR [42]: 24
Counts [43]: 681000
SBR [43]: 0.4
Counts [44]: 29800
SBR [44]: 1750
Kd [45]: > 0.05 nM
Kd [46]: 0.0826 nM
koff [46]: 9.41e-05 s⁻¹
kon [46]: 1.14e+06 M⁻¹ s⁻¹
Counts [47]: 12300
SBR [47]: 724
Counts [48]: 39600
SBR [48]: 2330
Counts [49]: 5.2e+07
SBR [49]: 27
Counts [50]: 36900
SBR [50]: 2170
Counts [51]: 96.6
SBR [51]: 5.7
Counts [52]: 1.84e+06
SBR [52]: 1
